Laboratory results from patent US20190248900A1 (Y BIOLOGICS, published 2019).
Residue numbers refer to the chain shown, from its start.

T1: ITGA6-Fc
T1 construct: Fc fusion
T1 sequence (P23229 whole entry, species assumed, looked up): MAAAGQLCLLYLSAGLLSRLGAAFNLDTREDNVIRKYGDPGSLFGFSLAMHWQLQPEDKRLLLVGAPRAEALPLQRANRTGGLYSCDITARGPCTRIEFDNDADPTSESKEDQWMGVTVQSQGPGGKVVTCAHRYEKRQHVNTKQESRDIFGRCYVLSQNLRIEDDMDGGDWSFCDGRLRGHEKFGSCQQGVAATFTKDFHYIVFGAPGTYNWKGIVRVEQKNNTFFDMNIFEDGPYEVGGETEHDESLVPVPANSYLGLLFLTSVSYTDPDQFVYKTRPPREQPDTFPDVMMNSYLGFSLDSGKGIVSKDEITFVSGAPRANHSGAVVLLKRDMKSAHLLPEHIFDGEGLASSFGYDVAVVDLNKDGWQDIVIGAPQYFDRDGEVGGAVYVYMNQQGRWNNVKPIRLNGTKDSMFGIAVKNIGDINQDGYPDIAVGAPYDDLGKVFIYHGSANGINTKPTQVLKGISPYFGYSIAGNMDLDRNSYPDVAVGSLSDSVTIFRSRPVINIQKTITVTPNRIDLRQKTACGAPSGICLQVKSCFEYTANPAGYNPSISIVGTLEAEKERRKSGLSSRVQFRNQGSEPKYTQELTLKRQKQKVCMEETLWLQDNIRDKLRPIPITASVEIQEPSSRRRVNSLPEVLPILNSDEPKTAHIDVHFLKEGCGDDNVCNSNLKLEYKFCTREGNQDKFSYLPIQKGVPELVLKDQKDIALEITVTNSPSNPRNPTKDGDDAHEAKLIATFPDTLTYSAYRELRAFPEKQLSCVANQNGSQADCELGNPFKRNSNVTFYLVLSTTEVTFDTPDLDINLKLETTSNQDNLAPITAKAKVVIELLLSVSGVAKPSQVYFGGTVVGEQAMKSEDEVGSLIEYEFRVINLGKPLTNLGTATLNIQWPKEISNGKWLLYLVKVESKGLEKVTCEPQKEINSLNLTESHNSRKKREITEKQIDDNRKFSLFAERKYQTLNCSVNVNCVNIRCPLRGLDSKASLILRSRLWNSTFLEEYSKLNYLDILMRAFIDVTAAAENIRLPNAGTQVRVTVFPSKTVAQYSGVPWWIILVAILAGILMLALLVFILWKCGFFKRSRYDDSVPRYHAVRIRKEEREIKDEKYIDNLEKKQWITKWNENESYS

T2: rat PD1 protein (rat, UniProt D3ZIN8 25-169)
T2 construct: also called rat PD-1 proteins
T2 sequence: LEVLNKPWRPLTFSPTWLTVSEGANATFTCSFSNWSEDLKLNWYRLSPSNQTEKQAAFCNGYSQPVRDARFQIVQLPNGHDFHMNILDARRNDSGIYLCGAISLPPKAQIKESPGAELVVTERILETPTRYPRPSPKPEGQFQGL

B1: PD1-45D6(A/3H7) (antibody, V domains shown)
VH: QVQLVESGGGVVQPGRSLRLSCAASGFTFSSYAMHWVRQVPGKGLEWVAVISYDGNDKYYADSVKGRFTISRDNSKNTLYLQMNSLRAEDTAVYYCVPTTFEYWGQGSQVTVSS
VL: DIVMTQTPLSLPVTPGEPASISCRSSQSLLDSDDGNTYLDWYLQKPGQSPQLLIYTLSHRASGVPGRFSGSGSGTEFNLRISRVEAEDVGIYYCMQRVEFPFTFGQGTKLEIK
notes: scFv-phage in the screening ELISA; whole IgG in the other assays; also called 45D6-3H7; PD1 45D6 3H7
B2: PD1-49A2(A/2A6) (antibody, V domains shown)
VH: QVQLVESGGGVVQPGRSLRLSCAASGFTFKYYAMHWVRQAPGKGLEWVTVISYDGQYKYYADSVKGRFTISRDNSKNTLYLQMNSLRAEDTAVYYCTTTTFDSWGQGTLVTVSS
VL: B1 VL with P18A, D33E, K45R, L110V
notes: scFv-phage in the screening ELISA; whole IgG in the other assays; also called 49A2-2A6; PD1 49A2 2A6
B3: PD1-45D6(A/5B5) (antibody, V domains shown)
VH: B1 VH with S30R, S31T, V40A, S108T, Q109L
VL: B1 VL with T14M, P18A, D33E, G66D, E76D, N78T, R80K, E87D, L110V
notes: scFv-phage in the screening ELISA; whole IgG in the other assays; also called 45D6-5B5; PD1 45D6 5B5
B4: PD1-49A2(A/1B2) (antibody, V domains shown)
VH: B2 VH with K30L, Y31R, T49A, Y57D, Q106R
VL: B1 VL with G66D
notes: scFv-phage in the screening ELISA; whole IgG in the other assays; also called 49A2-1B2; PD1 49A2 1B2
B5: PD1-45D6(A/3D2) (antibody, V domains shown)
VH: B1 VH
VL: B1 VL with P18A, D33E, G66D, E76D, N78T, R80K, L110V
notes: scFv-phage in the screening ELISA; whole IgG in the other assays; also called 45D6-3D2; PD1 45D6 3D2
B6: PD1-49A2(A/2B9) (antibody, V domains shown)
VH: B2 VH with K30L, Y31R, T49A, Q56R
VL: DIVMTQTPLSLPVTPGEAASISCRSSQSLLDSEDGNTYLDWYLQKPGQSPQLLIYTLSHRASGVPDRFSGSGSGTDFTLEISRVEAEDVGVYYCMQRRDFPFTFGQGTKVDIK
notes: scFv-phage in the screening ELISA; whole IgG in the other assays; also called 49A2-2B9; 49A2 (2B9)
B7: PD1-49A2(A/1H8) (antibody, V domains shown)
VH: B2 VH with Y31T, T49A, Y57H
VL: DIVMTQTPLSLPVTPGEPASISCRSSQSLLDRDGGHTYVDWYLQKPGQSPRLLIYTLSHRALGVPDRFSGSGSGTDFTLKISRVEADDVGLYYCMQRIEFPFTFGQGTKVEIK
notes: scFv-phage in the screening ELISA; whole IgG in the other assays; also called 49A2-1H8; PD1 49A2 1H8
B8: PD1-45D6(A/5B2) (antibody, V domains shown)
VH: B1 VH with S31F, V40A, S108T, Q109L
VL: B6 VL with L11P, A18P, E33D, V110L
notes: scFv-phage in the screening ELISA; whole IgG in the other assays; also called 45D6-5B2; PD1 45D6 5B2
B9: PD1-62E1 (antibody, V domains shown)
VH: QVQLVESGGDLVKPGRSLRLSCTGSGFTFGDHPLTWVRQIPGKGLEWVGFIRSKAYGETTEYAASVKGRFTISRDDSKSIAYLQMNSLRAEDTAVYYCASVSYCSGGSCYQGTFDYWGQGTLVTVSS
VL: DIQMTQSPAILSLSPGERATLSCRASQSVTSDVAWYQHIRGQAPRLLIYDASNRASGIPARFSGGGSGTEFTLTISSLEPEDFAVYYCQQYNNWPLTFGGGTKVEIK
B10: mPDL2-mFC (Fc fusion, mouse (prefix m on the sheet), UniProt Q9WUL5 20-221, looked up)
ligand fused to Fc: LFTVTAPKEVYTVDVGSSVSLECDFDRRECTELEGIRASLQKVENDTSLQSERATLLEEQLPLGKALFHIPSVQVRDSGQYRCLVICGAAWDYKYLTVKVKASYMRIDTRILEVPGTGEVQLTCQARGYPLAEVSWQNVSVPANTSHIRTPEGLYQVTSVLRLKPQPSRNFSCMFWNAHMKELTSAIIDPLSRMEPKVPRTW
notes: mFC fusion

What follows are binders tested against T3, human PD-1 (NM_005018.2) over-expressed on cells (human, UniProt Q15116 25-288) (assay: cell-based or functional assay).

Row | Binder | EC50 [nM], PD1/PD-L1 blockade bioassay [nM]
1 | B1 | 1.98
2 | B2 | 1.51
3 | B3 | 1.68
4 | B4 | 1.3
5 | B5 | 2.16
6 | B6 | 1.23
7 | B7 | 1.21
8 | B8 | 1.48
9 | B9 | 2.73

What follows are binders tested against T4, M11 (assay: ELISA, 1 ug/ml).
T4 construct: also called PD1 mutant M11

Row | Binder | OD490
10 | B10 | 1.7
11 | B6 | 0.433
12 | B8 | 0.446

Each binder was assayed against T5, M7 (assay: ELISA, 1 ug/ml).
T5 construct: also called PD1 mutant M7

Row | Binder | OD490
13 | B6 | 0.083
14 | B8 | 0.238

The binders below were run against T1, ITGA6-Fc (assay: ELISA, 1 ug/ml).

Row | Binder | OD490
15 | B10 | 0.3
16 | B6 | 0.1
17 | B8 | 0.124

Target: T3, human PD-1 (NM_005018.2) over-expressed …
Test: cell-based or functional assay
Remark: another data set of the same source

Row | Binder | EC50 [nM]
18 | B1 | 1.64
19 | B2 | 1.67
20 | B3 | 0.906
21 | B4 | 2.03
22 | B5 | 2
23 | B6 | 0.689
24 | B7 | 1.45
25 | B8 | 1.66

The binders below were run against T2, rat PD1 protein (assay: SPR ProteOn XPR36; format for rat PD1 not described).

Row | Binder | Kd [nM] | koff [s⁻¹] | kon [M⁻¹ s⁻¹]
26 | B6 | 4.23 | 0.000625 | 148000
27 | B8 | 4.59 | 0.000863 | 188000

Each binder was assayed against T6, monkey PD1 protein (monkey) (assay: SPR ProteOn XPR36; format for monkey PD1 not described).
T6 construct: also called monkey PD-1 proteins

Row | Binder | Kd [nM] | koff [s⁻¹] | kon [M⁻¹ s⁻¹]
28 | B6 | 0.001 | 1e-07 | 185000
29 | B8 | – | – | 208000

The binders below were run against T7, PD1-hFc (human, UniProt Q15116 25-170) (assay: SPR ProteOn XPR36, PD1-hFc immobilised, antibody as analyte).
T7 construct: extracellular domain; also called PD1-hFc protein; Human PD-1-Fc (S1420, Y-Biologics)
Experimental: A ProteOn XPR36 (BioRad) instrument was used. The GLC sensor chip (BioRad) was mounted on the instrument and washed with PBST buffer, and the carboxymethyldextran surface was activated with an EDC/sulfo-NHS mixed solution. PD1-hFc dissolved at a concentration of 5 ug/ml in a 10 mM sodium acetate buffer solution (pH 5.0) was injected and immobilized on the GLC sensor chip.
In order to deactivate the activated carboxyl groups that remain unreacted with the PD1 protein, 1 M ethanolamine was flowed and 10 mM glycine (pH 2.0) was injected in order to wash proteins that remain unbound to the sensor chip.
The equilibrium dissociation constant (KD) was calculated by plotting and fitting the sensogram data in the equilibrium state depending on concentration.

Row | Binder | Kd [nM] | koff [s⁻¹] | kon [M⁻¹ s⁻¹]
30 | B1 | 0.0253 | 7.78e-06 | 308000
31 | B2 | 0.0691 | 2.14e-05 | 310000
32 | B3 | 0.0477 | 1.41e-05 | 296000
33 | B4 | 0.166 | 6.39e-05 | 385000
34 | B5 | ≤ 0.001 | ≤ 1e-07 | 181000
35 | B6 | – | – | 377000
36 | B7 | 0.0124 | 2.74e-06 | 220000
37 | B8 | 0.0582 | 1.93e-05 | 332000

Each binder was assayed against T3, human PD-1 (NM_005018.2) over-expressed … (assay: flow cytometry on cells over-expressing human PD-1, fit of Geometric Mean).

Row | Binder | Bmax | Kd [nM]
38 | B6 | 2900 | 6.2

Each binder was assayed against T7, PD1-hFc (assay: competition ELISA: PD1-Fc coated, PDL1-His as binder, antibody as competitor).
Experimental: (§1) Human PD-1-Fc (S1420, Y-Biologics) or PD-L2-Fc (#10292-H02H, Sino) was added to wells of a 96-well immuno microplate (#439454, Thermo) and then washed three times with PBS containing 0.05% tween-20 (#P9416, Sigma-Aldrich), followed by allowing to stand in a cleaning solution containing 4% skim milk (#232120, Becton, Dickinson and Company) at room temperature for 1 hour to block non-specific binding. […] After the resulting product was subjected to the same washing method as above, the anti-Biotin-His antibody (#MA1-21315-BTIN, Thermo) diluted to 1:2000 was added to the well of the microplate, allowed to react at room temperature for 1 hour, streptavidin poly-HRP antibody (#21140, Pierce) diluted to 1:5000 was added to the well of microplate, reacted at room temperature for 1 hour and then washed in the same manner. 100 ul of a TMB substrate solution (#T0440, Sigma-Aldrich) was added to the reaction product, light was shielded, and the reaction product was allowed to stand at room temperature for 3 minutes, 50 μL of 2.5 M sulfuric acid (#S1478, Samchun) was added to stop the reaction, and absorbance was measured at 450 nm using a spectrophotometer (*GM3000, Glomax® Discover System Promega).

Row | Binder | IC50 [nM]
39 | B6 | 6.38
40 | B8 | 3.09
41 | B9 | 2.89

Each binder was assayed against T8, PD-1-His (S1352, Y-Biologics) (UniProt Q15116 25-170, limits assumed) (assay: competition ELISA: PD-L2-Fc coated, PD-1-His as binder, antibody as competitor).
T8 construct: not shown: His tag
Experimental: as §1

Row | Binder | IC50 [nM]
42 | B6 | 59
43 | B8 | 75.4
44 | B9 | 314

These binders were tested against T7, PD1-hFc (assay: ProteOn XPR36; legend names PD1-hFc, the sheet names the immobilised protein PD-1 C-his).

Row | Binder | Kd [nM] | koff [s⁻¹]
45 | B6 | < 0.001 | < 1e-07
